Data reported in the supplement of paper PMC9170038.

Test system: MS2 coat protein
Assay: apparent KD of MS2 coat protein; designed switch direction (-1 OFF switch, 1 ON switch): -1; higher = weaker reporter binding
Procedure, shortened: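 Designed RNA switches with common flanks were transcribed on Illumina chips by stalled E. coli RNA polymerase and titrated with SNAP-549-labelled MS2 coat protein, from 0.7 or 1.5 nM doubling to 3 µM, in Tris-HCl pH 7.5 buffer with KCl, MgCl2, BSA, DTT, tRNA and Tween-20. Steps lasted 0.8–1.5 h (lowest) to 10–20 min (highest). Titrations ran without input, with 200 uM small-molecule ligand, or with an oligonucleotide input. Normalised cluster fluorescence was curve-fitted, and apparent KD is the per-design median over clusters.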

[1] = input ligand: microRNA oligo, concentration not stated
[2] = Eterna round: R95, input ligand: FMN 200 uM
[3] = Eterna round: R95, input ligand: microRNA oligo, concentration not stated
[4] = Eterna round: R95, input ligand: none

| Sequence | apparent KD of MS2 coat protein (input ligand: FMN 200 uM) [nM] | apparent KD of MS2 coat protein (input ligand: none) [nM] | apparent KD of MS2 coat protein [3] [nM] | further results |
| --- | --- | --- | --- | --- |
| UCACGGCUCGGAGGAUAUGACACAUGAGGAUCACCCAUGUGUGUAAGCCAAUAAACCUACAAAUGUCAGAAGGCCGCGCCUCAU [Eternabot solution 9] (Eterna round: R96, puzzle: Exclusion NG 2) |  |  |  | apparent KD of MS2 coat protein [1]: 10.8 nM |
| UCACGGGACUGAGGAUAUACAUGAAUUAUUUUUGUAGAAGGCAGAAUGUUAGUUUAUUCACUAUACAUGAGGAUCACCCAUGUU [JR_ExcNG1_Sub021] (Eterna round: R96, puzzle: Exclusion NG 1) | 21.5 | 32.9 |  | apparent KD of MS2 coat protein [1]: 26.7 nM |
| UCACGGGAUUGAGGAUAUAUAUUAAUUUUUUUUAUAGAAGGCAAAUUGUUAGAUUAUUCACUAUACAUGAGGAUCACCCAUGUU [JR_ExcBG1_Sub077] (Eterna round: R96, puzzle: Exclusion NG 1) |  |  |  | apparent KD of MS2 coat protein [1]: 19.9 nM |
| UCACGGGAUUGAGGAUAUAUAUUUAUUAUUUUAAUAGAAGGCAAAGAGUUAGUUUUUUCACUAUACAUGAGGAUCACCCAUGUU [JR_ExcNG1_Sub086] (Eterna round: R96, puzzle: Exclusion NG 1) |  |  |  | apparent KD of MS2 coat protein [1]: 23.2 nM |
| UCAGGAGCAGGAUAUGCAAUCGUGCUUCGGCACGUAAGGUCACAUGAGGAUCACCCAUGUAGAAGGGCUCCUGA [E2/4-D2] (Eterna round: R97, puzzle: Exclusion 2) | 38.4 | 18.4 |  |  |
| UCAGGUGCAGGAUAUACAUGAGGAUCACCCAUGUGAUUAGCAGUCCUCGGACUGCAAUGUAGAAGGGCACCUGA [E3/2-D2] (Eterna round: R97, puzzle: Exclusion 3) | 763 | 346 |  |  |
| UCAUACGAUGAGGAUAUCUCAGUUAAAGUAUUUAGAGAAGGCGUUACAUGAGGAUCACCCAUGUUUGUGGGCAG [Ex-6 Malc#8] (puzzle: Exclusion 6) |  |  | 93.9 | apparent KD of MS2 coat protein [2]: 99.1 nM; apparent KD of MS2 coat protein [4]: 136 nM |
| UCAUACGAUGAGGAUAUCUCCGUUAAAGUAUGUAGAGAAGGCGUUACAUGAGGAUCACCCAUGUUUGUGGGCAG [Ex-6 Malc#9] (Eterna round: R96, puzzle: Exclusion 6) |  |  |  | apparent KD of MS2 coat protein [1]: 250 nM |
| UCAUACGAUGAGGAUAUCUCCGUUAAAGUAUGUAGAGAAGGCGUUACAUGAGGAUCACCCAUGUUUGUGGGCAG [Ex-6 Malc#9] (puzzle: Exclusion 6) |  |  | 217 | apparent KD of MS2 coat protein [2]: 223 nM; apparent KD of MS2 coat protein [4]: 190 nM |
| UCAUAGUGAGGAUAUCGGUCCCUGACAAAUAGUUGGGUUAUUGAGAAGGCACAUGAGGAUCACCCAUGUGUCCG [EX4 C.5] (Eterna round: R97, puzzle: Exclusion 4) | 19.7 | 13.5 |  |  |
| UCAUGUAUGUAGGAUAUCGAUGUCUUCGGACAUCGAGAAGGACGUACAUGAGGAUCACCCAUGUAACUUGCAUG [Exclusion 6 - B - 11:b] (puzzle: Exclusion 6) |  |  | 14.8 |  |
| UCCAAGACAGGAUAUCUAGAGCCAAACAUGAGGAUCACCCAUGUGAAUCUCAGCAAACGCAGAGAAGGGUCAAAAU [Orisinxe] (puzzle: Exclusion 5) |  |  | 23.2 | apparent KD of MS2 coat protein [2]: 30.1 nM; apparent KD of MS2 coat protein [4]: 30.9 nM |
| UCCACACAUGAGGAUCACCCAUGUCAGGAUAUCUUUAGGGACUAUGGUUAUUCCUAAUAGAGAAGGGACAUAUU [EX1 B.27] (Eterna round: R97, puzzle: Exclusion 1) | 152 | 37.1 |  |  |
| UCCAGACAUGAGGAUCACCCAUGUGAGGAUAUGAUGCGAUCGUCGAAAGACGAUAGCAUCAGAAGGCACGUAUG [Fiskers Ex 1 - 15] (puzzle: Exclusion 1) |  |  | 32.6 |  |
| UCCAUGUCAGGAUAUCUAAAGGUCCGAAAUAACGGUACUGCAGAGAAGGGACAUGAGGAUCACCCAUGUCCUCC [Exclusion 4 (Mod2 of Nando's EX4 C.22)] (Eterna round: R97, puzzle: Exclusion 4) | 20.3 | 16 |  |  |
| UCCCUGUCAGGAUAUACAUGAGGAUCACCCAUGUCUCUCCGACACGGGAAAAGGAACUGUAGAAGGGACAGGAU [Xezaeseris] (puzzle: Exclusion 3) |  |  | 12.3 | apparent KD of MS2 coat protein [2]: 19.6 nM; apparent KD of MS2 coat protein [4]: 15.2 nM |
| UCCUCACAUGAGGAUCACCCAUGUCAGGAUAUCCAGUUGGGCCUCUGUAGAGGCGCCAGGAGAAGGGAUAAGGA [Ceenerso] (Eterna round: R97, puzzle: Exclusion 1) | 35.9 | 22.3 |  |  |
| UCCUGACAUGAGGAUCACCCAUGUAAGGAUAUCAGCCACCCAGCAAAAGCUGGGCAAGUGAGAAGGUACACGGG [EX1 A.30] (Eterna round: R97, puzzle: Exclusion 1) | 157 | 30.6 |  |  |
| UCCUUACUGGUCAGGAUAUACAGUCGCGGGUGGGUGUAGAAGGGACAUGAGGAUCACCCAUGUACGUUACAGCC [alecazam54i] (Eterna round: R97, puzzle: Brourd's mod of Exclusion 4) | 27.6 | 30.2 |  |  |
| UCGAAAUCUAACAAGCCAUACAUGAGGAUCACCCAUGUGUUCGUCAUAGCGAUCCGACAUGAUGCUCGUCGAAAUAC [Eternabot (L2) Solution 48] (Eterna round: R97, puzzle: Sensor, turn-off variant 1) | 448 | 745 |  |  |
| UCGCGCCUAGGAUAUAUAAGGACUUUCUAGUAUGUUGCGAAACAUGAGGAUCACCCAUGUAGAAGGAGGUAGUG [Eternabot (L2) Solution 89] (Eterna round: R97, puzzle: Exclusion 2) | 222 | 77.3 |  |  |
| UCGCUCCGUGUAGGAUAUCGUUGUACCCUGCGGCGAGAAGGACAUGAGGAUCACCCAUGUAUGUUAUUAUCACGCGUGGCGCAC [Design 70] (Eterna round: R96, puzzle: Exclusion NG 1) | 15.4 | 21.6 |  | apparent KD of MS2 coat protein [1]: 15.5 nM |
| UCGCUGCGAGGAUAUACAUGAGGAUCACCCAUGUACGGGUCCGGGUCUUAGUUGAUUGGUAGAAGGCGCAGUGA [JL Laongeedie mod 11] (puzzle: Exclusion 3) |  |  | 84.7 |  |
| UCGGCGCGAGGAUAUACGUUUGCGCGUUUUCGUUUGCGCGUACAUGAGGAUCACCCAUGUAGAAGGCGCGCGGC [Apr-15 SS2-13] (puzzle: Exclusion 2) |  |  | 11.5 |  |
| UCGGCGCGAGGAUAUGCGGCUGGUGCUUCGGGCCCUGGCGUACAUGAGGAUCACCCAUGUAGAAGGCGCGCCGC [Apr-15 SS2-41] (puzzle: Exclusion 2) |  |  | 10.2 |  |
| UCGGCGCGAGGAUAUGCGGUUUGUGCUUUGGGCCCUGGCGUACAUGAGGAUCACCCAUGUAGAAGGCGCGCCGC [Apr-15 SS2-47] (puzzle: Exclusion 2) |  |  | 15.9 |  |
| UCGUGGUUACGCUGCAGUUGCCUGAGCGGAGGCUCUGUGACAUGAGGAUCACCCAUGUAGCUUUUUGCUCAUCUUAA [JR_SV3TOV2_Sub040] (puzzle: Sensor v3, turn-off variant 2) |  |  | 39.9 | apparent KD of MS2 coat protein [2]: 25.2 nM; apparent KD of MS2 coat protein [4]: 24.6 nM |
| UCGUUUCGUGUAGGAUAUUGGCCUGCUCUGGGUCGAGAAGGACAUGAGGAUCACCCAUGUAUGUUAUUAUCACGCGUGGCGCAU [Design 82] (Eterna round: R96, puzzle: Exclusion NG 1) | 124 | 36.6 |  | apparent KD of MS2 coat protein [1]: 34 nM |
